We go through one protein from FireProtDB (doi:10.1021/bi034721x).

For the data set the following is noted: Rattus norvegicus; pH 7.4; Thermal; DSC; sodium phosphate 10 mM; NaCl 0.20 M; whole UniProt chain shown.

“And” between values parts separate entries of the source, which are not always exact repeats. Equal values may be shown once.

B1: Parvalbumin alpha wild type, P02625 (protein)
chain: MSMTDLLSAEDIKKAIGAFTAADSFDHKKFFQMVGLKKKSADDVKKVFHILDKDKSGFIEEDELGSILKGFSSDARDLSAKETKTLMAAGDKDGDGKIGVEEFSTLVAES
B1: the “unfolding enthalpy (calorimetric)” value was 76 kcal/mol and 72 kcal/mol and 52 kcal/mol.
